Experimental data as given in US20070134215A1.

Target: BMP-2
Assay: cell-based or functional assay

appearance of beating EBs (myocardial differentiation-inducing effect of Noggin protein at 150 ng/mL on ES cells, floating culture): > 5 ng/mL
Substance: Recombinant Mouse Noggin/Fc Chimera protein (R&D Systems) (from UniProt P97466 28-232) (Fc fusion)
